Consider four substances from patent US6329500A, “Transforming growth factor-β binding site” (University of Virginia Patent Foundation, priority 1999, dated 2001).

Like-named read-outs stand apart in the source and are kept apart here.

Assay [1] has as its target T1, 125I-TGF-β1 binding to immobilized FP3 (Homo sapiens, UniProt P01023+P01137).
T1 construct: corresponding to amino acids 614-797 and 798-1082, respectively; made in house
The assay can be described thus: Competition for 125I-TGF-β1 binding to PVDF-immobilized FP3. The settings on record: unlabeled TGF-β1 0.2 μM. As for the experimental part: (§1) To block free sulfhydryls, some samples were treated with 5 mM IAM for 2 h at 25° C. Equivalent amounts of each protein ([…]) were subjected to SDS-PAGE on 10% slabs. IAM-treated GST-α2 M-peptide fusion proteins were subjected to SDS-PAGE as well. All samples were electro-transferred to PVDF membranes. The membranes were blocked with 5% milk and 0.1% Tween 20 in PBS for 12 h at 4° C. and then rinsed with 0.1% Tween 20 in PBS (PBS-T). […] Biophys. Res. Commun. […] NGF-β was radioiodinated with Iodogen, to a specific activity of 2-5 μCi/μg, using the method recommended by the manufacturer. […] After washing the membranes with PBS-T, bound radioligands were detected by Phosphorlmager analysis.

Assay [2] has as its system FBHE cells. The assay can be described thus: Endothelial cell proliferation assay, TGF-β alone. To be noted: TGF-β 10 pM, 1 h pulse. It is filed as cell-based, bovine. As for the experimental part: Fetal bovine heart endothelial (FBHE) cells were cultured in DMEM supplemented with 10% FBS, 20 ng/ml acidic fibroblast growth factor, and 80 ng/ml basic fibroblast growth factor and passaged at subconfluence with trypsin-EDTA. To perform proliferation assays, the cells were plated at a density of 2×10^4 /well (24 well plates) in DMEM supplemented with 0.2% FBS. […] The fusion proteins were preincubated with the TGF-β for 15 min prior to addition to the cultures. At the completion of an incubation, the cultures were washed 3 times with serum-free DMEM and then allowed to incubate in DMEM with 0.2% FBS for 30 h. [^3 H]Thymidine was added for an additional 18 h; the cells were then harvested and [^3 H]thymidine incorporation was quantitated.

The target of assay [3] is T2, TGF-β1 (Homo sapiens, UniProt P01137).
T2 construct: purchased R&D Systems (Minneapolis, Minn.)
T2 sequence (P01137 279-390 limits assumed, species assumed): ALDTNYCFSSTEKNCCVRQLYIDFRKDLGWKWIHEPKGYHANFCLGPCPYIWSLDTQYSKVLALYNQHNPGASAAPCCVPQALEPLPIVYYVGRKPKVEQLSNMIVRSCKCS
The assay can be described thus: 125I-TGF-β1 binding to immobilized α2M-MA, solution-phase competition. The settings on record: mean ± S.E., n=4; 1 h at 22° C. How it is done:
The wells were washed three times with PBS-T and blocked with PBS-T for 16 h at 4° C. […] In the presence of a fusion protein (FP) which binds TGF-β, the total concentration of TGF-β [βT ] was related to [βF ], at equilibrium, as follows: [βT ]=[βF ](1+[FP]/KI).

The target of assay [4] is T2, TGF-β1. The settings on record: previously reported in references 31 and 33; mean ± S.E., n=4; read-out: IC50, 125I-TGF-β1 binding to immobilized α2M-MA; cited from earlier work.
For assay [5], the target named is T3, TGF-β2 (Homo sapiens, UniProt P61812).
T3 construct: purchased Genzyme (Cambridge, Mass.)
T3 sequence (P61812 303-414 limits assumed): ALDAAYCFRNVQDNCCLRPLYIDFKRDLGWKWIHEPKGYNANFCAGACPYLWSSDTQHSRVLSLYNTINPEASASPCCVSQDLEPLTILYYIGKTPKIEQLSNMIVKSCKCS
The assay can be described thus: Ligand blot analysis of 125I-TGF-β2 binding to PVDF-immobilized proteins. The settings on record: SDS-PAGE, PVDF membrane, 125I-TGF-β2 20 pM, 2 h at 25° C. How it is done: as §1

Assay [6] concerns the target T2, TGF-β1. Briefly: Ligand blot analysis of 125I-TGF-β1 binding to PVDF-immobilized proteins. The settings on record: SDS-PAGE, PVDF membrane, 125I-TGF-β1, 2 h at 25° C. As for the experimental part:
as §1

Assay [7] deals with T4, NGF-β (Mus musculus, UniProt P01139).
T4 construct: from tissue; host or cells: male mouse submaxillary glands
T4 sequence (P01139 122-239 limits assumed): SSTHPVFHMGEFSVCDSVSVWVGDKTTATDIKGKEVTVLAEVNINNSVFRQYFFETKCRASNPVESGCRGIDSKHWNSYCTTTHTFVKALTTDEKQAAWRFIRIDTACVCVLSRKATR
The assay can be described thus: Ligand blot analysis of 125I-NGF-β binding to PVDF-immobilized proteins. To be noted: SDS-PAGE, PVDF membrane, 125I-NGF-β 50 pM, 2 h at 25° C. How it is done: as §1

In assay [8] the target is T3, TGF-β2. To be noted: read-out: KD for the binding of TGF-β2; cited from earlier work.
The target in assay [9] is T3, TGF-β2. To be noted: previously reported in references 31 and 33; mean ± S.E., n=4; read-out: IC50, 125I-TGF-β2 binding to immobilized α2M-MA; cited from earlier work.

T1 sequence (P01023 with tags, fused parts or gaps limits assumed): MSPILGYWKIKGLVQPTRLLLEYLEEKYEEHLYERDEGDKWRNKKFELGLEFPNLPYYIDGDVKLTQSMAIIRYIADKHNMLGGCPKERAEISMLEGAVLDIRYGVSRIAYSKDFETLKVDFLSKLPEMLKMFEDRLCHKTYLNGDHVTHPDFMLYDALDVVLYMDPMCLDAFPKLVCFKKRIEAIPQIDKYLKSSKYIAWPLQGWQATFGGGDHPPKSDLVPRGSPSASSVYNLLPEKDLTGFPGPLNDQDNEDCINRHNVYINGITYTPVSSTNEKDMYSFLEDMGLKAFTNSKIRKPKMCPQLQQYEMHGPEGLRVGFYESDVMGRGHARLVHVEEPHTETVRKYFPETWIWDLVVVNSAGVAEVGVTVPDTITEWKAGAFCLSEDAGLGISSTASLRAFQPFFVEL
T1 sequence (P01137 279-390 limits assumed): as the sequence (P01137 279-390 limits assumed, species assumed) above

Take “TGF-β1: transforming growth factor-β1 from R&D Systems”: the “Inhibition of 125I-TGF-β1 binding to immobilized FP3” value in assay [1] was 72±8%. Moreover, the “Decrease of [3H]thymidine incorporation” value in assay [2] was determined as 69%.

In the case of “α2 M monomer: prepared by exposing native α2M to 2 mM DTT under non-denaturing conditions”, the half-inhibitory concentration (IC50) (as a rule, the point on the concentration scale where inhibition reaches its midpoint) in assay [3] is 360 ± 48 nM.

Turning to “Thrombospondin: solution-phase inhibitor of TGF-β binding to immobilized α2M-MA [reference compound]”, in assay [4], the IC50 was 160 ± 18 nM.

In the case of “α2 M: Human α2-macroglobulin, 718-kDa homotetrameric glycoprotein purified from plasma”, the “125I-TGF-β2 binding, ligand blot” value in assay [5] was “bound”. Besides, in assay [6], the “125I-TGF-β1 binding, ligand blot” value is “bound”. Further, the “125I-NGF-β binding, ligand blot” value in [7] is listed as “bound”. In addition, the Kd (usually the free concentration of one partner at which half of the binding sites on the other are occupied at equilibrium, for simple one-to-one binding) in assay [8] is 10 nM. Further, the IC50 in [4] is 520 ± 39 nM; in assay [9], 19 ± 3 nM.
